In the RNAGym collection of RNA variant scans (doi:10.7554/elife.80360) one finds self-cleavage data, which are given here for 32 variants.

To fix the notation:
B1: HDV Ribozyme (parent)
chain: GGCCGGCAUGGUCCCAGCCUCCUCGCUGGCGCCGGCUGGGCAACAUUCCGAGGGGACCGUCCCCUCGGUAAUGGCGAAUGGGACCCA

In the data set the parent is B1. Description: self-cleavage, relative activity (ratio to wild type); higher = more cleavage; co-transcriptional.
With GGCCGGCAUGGUCCCAGCCUCCUCGCUGGCGCCGGCUGGGCAACAUUGCGAGGGGACCGUCCCCUCGGUAGUGGCGAAUGGGACCCA, the self-cleavage is 0.962.

Take GGCCGGCAUGGUCCCAGCCUCCUCGCUGGCGCCGGCUGGGCAACAUUCCGAUGGCACCGUCCCCUCGGUAAUGGCGAAUGGGACCCA: the self-cleavage amounted to 0.961.

With UGCCGGCAUGGUCCCAGCCUCCUCGCUGGCGCCGGCUGGGCAACAUUCCGAGGGGAACGUCCCCUCGGUAAUGGCGAAUGGGACCCA, the self-cleavage was 0.423.

As for GGCCGGCAUGGUCCCAGCCUCCUCGUUGGCGCCGGCUGGGCAACAUUCCGAGGGGACCGUCCCCUCGGUAAUGGCGAAUGAGACCCA, the self-cleavage turned out to be 0.888.

GGCCGGCAUGGUCCCAGCCUCCUCGCUGGCGCCGGCUGGGCACCAUUCCGAGGGGACCGUCCCCUCGGUAAUGGCGGAUGGGACCCA: the self-cleavage is 0.317.

As for GGCCGGCAUGGUCCCAGCCUCCUCGCUGGCGCCGGCUGGGCAACCUUCCGAGGGGACCGUCCACUCGGUAAUGGCGAAUGGGACCCA, the self-cleavage was found to be 0.748.

On to GGCCGGCAUGGUCCCAGCCUCCUUGCUGGCGCCGGCUGGGCAACGUUCCGAGGGGACCGUCCCCUCGGUAAUGGCGAAUGGGACCCA, for which the self-cleavage amounted to 0.373.

Turning to GGCCGGCAUGGUCCCAGCCUCCUCGCUGGCGCCGGCUGGGCAACAUUCCGAGGGGACCGUCCCCUCGAUACUGGCGAAUGGGACCCA, the self-cleavage was 0.58.

For the variant GGCCGGAAUGGUCCCAGCCUCCUCGGUGGCGCCGGCUGGGCAACAUUCCGAGGGGACCGUCCCCUCGGUAAUGGCGAAUGGGACCCA, the self-cleavage was found to be 0.554.

For GGCCGGCAUGGUCCCAGCCUCCUCGCUGGCGCCGGCUGGGCAACAUUCCUAGGGGACCGUCCCCUCGGUAAUGGCGAAUAGGACCCA, the self-cleavage was 0.486.

For GGCCGGCAUGGACCCAGGCUCCUCGCUGGCGCCGGCUGGGCAACAUUCCGAGGGGACCGUCCCCUCGGUAAUGGCGAAUGGGACCCA, the self-cleavage was 0.0405.

As to GGCCGGCAUGGUCCCAGCCUCCUCGCUGGCGCCGGCUGGGCAACAUUCCAAGGGGACCGUCCCCUCGGUAAUAGCGAAUGGGACCCA, the self-cleavage is 0.623.

GGCCGGCAAGGUCCCAGCCUCCUCGCUGCCGCCGGCUGGGCAACAUUCCGAGGGGACCGUCCCCUCGGUAAUGGCGAAUGGGACCCA: the self-cleavage was 0.

Regarding GGCGGGCAUGGUCCCAGCCUCCUCGCUGGCGCCGGCUGGGCAACAUUCCGAGGGGACAGUCCCCUCGGUAAUGGCGAAUGGGACCCA, the self-cleavage stood at 0.429.

For GGCCGGCAUGGUCCCAGCCUCCUUCCUGGCGCCGGCUGGGCAACAUUCCGAGGGGACCGUCCCCUCGGUAAUGGCGAAUGGGACCCA, the self-cleavage was found to be 0.125.

Regarding GGCCGGCAUGGUCCCAGUCUCCUCGCUGGCGCCGGCUGGGCAACAUUGCGAGGGGACCGUCCCCUCGGUAAUGGCGAAUGGGACCCA, the self-cleavage amounted to 0.683.

GGUCGGCAUGGUCCCAGCCUCCUCGCUGGCGCCGGCUGGGCAACGUUCCGAGGGGACCGUCCCCUCGGUAAUGGCGAAUGGGACCCA: the self-cleavage is 0.607.

With GGCCGGCAUGGUCCCAGCCUCCUCGCUUGCGCCGGCUGGGCAACAUUCCGGGGGGACCGUCCCCUCGGUAAUGGCGAAUGGGACCCA, the self-cleavage is 0.117.

For GGCCGGCAUGGUCCCAGCCUCCUCGCUGGCGCCGGCUGGGCAACAUUCCGAGGGGACCGUCCCCUCGGUAUUGUCGAAUGGGACCCA, the self-cleavage came to 0.689.

As to GGCCGGCAUGGUCUCAGCCUCCUCGCUGGCGCCGGCUGGGCAACAUUCCGAGGGGGCCGUCCCCUCGGUAAUGGCGAAUGGGACCCA, the self-cleavage was found to be 1.16.

As to GGCCAGCAUGGUCCCAGCCUCCUCGCUGGCGCCGGCUAGGCAACAUUCCGAGGGGACCGUCCCCUCGGUAAUGGCGAAUGGGACCCA, the self-cleavage is 0.147.

Regarding GGCCGGCAUCGUCUCAGCCUCCUCGCUGGCGCCGGCUGGGCAACAUUCCGAGGGGACCGUCCCCUCGGUAAUGGCGAAUGGGACCCA, the self-cleavage worked out at 1.11.

Consider GGCCGGCAUGGUCCCAGCCUUCUCGCUGGCGCCGGCUGGGCAACAUUCCGAGGGGACCGUCCCCUCGGUAAUGGCGAAUGGGACCCU, for which the self-cleavage was 0.368.

As for GGCCGGCAUGGUCCCAGCCUCCUCGUUGGCGCCUGCUGGGCAACAUUCCGAGGGGACCGUCCCCUCGGUAAUGGCGAAUGGGACCCA, the self-cleavage was determined as 0.767.

As for GGCCGGCAUGGUCCCAGCCUCCUCGCUGGCGCCGGCUGGGCAACAUUCCGAGGGGACCGUCCCCUCGGUAAGGGCGAAUGGGACGCA, the self-cleavage came to 0.609.

As to GGCCAGCAUGGUCCCAGCCUCCUCGCUCGCGCCGGCUGGGCAACAUUCCGAGGGGACCGUCCCCUCGGUAAUGGCGAAUGGGACCCA, the self-cleavage turned out to be 0.104.

For GGCCGGCAUGGUCCCACCCUCCUCGCUGGCGCCGGCUGGGCAACAUUCAGAGGGGACCGUCCCCUCGGUAAUGGCGAAUGGGACCCA, the self-cleavage came out at 0.467.

On to GGCCGGCAUGGUCCCAGCCUCCUAGCUGGCGCCGGCUGGGCAACAUUCCGGGGGGACCGUCCCCUCGGUAAUGGCGAAUGGGACCCA, for which the self-cleavage came to 0.665.

For GGCCGGCAUGGUCCCAGCCUCCUCGCUGGCGCCGGCUGGGCAACAUUCCGAGGGGACCGUCCCCUCGGUAAUGGCGAUAGGGACCCA, the self-cleavage amounted to 0.095.

As to GGCCGGCAUGGUCCCAGCCUCCUCGCUGGCGCCGGCUCGGCAACAUUCCGAGGGGACCGUCCCCGCGGUAAUGGCGAAUGGGACCCA, the self-cleavage worked out at 0.142.

On to GGCCGGCAUGGUCCCAGCCUCCUCGCUGGCGCCGGCUGGGCAACAUUCCGAGGGGACCGUCCCCUCGGUAAUGGCGAAAGGGACCUA, for which the self-cleavage turned out to be 1.02.

For GGCCGGCAUGGUCCCAGCCUCCUUGCUGGCGCCGGCUGGGCAACAUUCCGAGGGGACCGUCCCCUCGGUAAUGGCGAAUGGGACUCA, the self-cleavage stood at 0.718.
